Values belong to the binder of their own block, whether it stands above or below them.
Tests used:
[1] = target: T1, cynomolgus PTK7 extra-cellular domain (ECD) linked to His tag (cynomolgus monkey, UniProt A0A2K5VNI5 39-712); experiment: BLI (Octet RED), antibody on anti-human IgG Fc tips, PTK7 ECD-His 100 to 1.56 nM in solution, 1:1 global fit
T1 construct: extracellular domain; also called cPTK7-his; cynomolgus monkey PTK7-his protein; not shown: His tag
T1 sequence: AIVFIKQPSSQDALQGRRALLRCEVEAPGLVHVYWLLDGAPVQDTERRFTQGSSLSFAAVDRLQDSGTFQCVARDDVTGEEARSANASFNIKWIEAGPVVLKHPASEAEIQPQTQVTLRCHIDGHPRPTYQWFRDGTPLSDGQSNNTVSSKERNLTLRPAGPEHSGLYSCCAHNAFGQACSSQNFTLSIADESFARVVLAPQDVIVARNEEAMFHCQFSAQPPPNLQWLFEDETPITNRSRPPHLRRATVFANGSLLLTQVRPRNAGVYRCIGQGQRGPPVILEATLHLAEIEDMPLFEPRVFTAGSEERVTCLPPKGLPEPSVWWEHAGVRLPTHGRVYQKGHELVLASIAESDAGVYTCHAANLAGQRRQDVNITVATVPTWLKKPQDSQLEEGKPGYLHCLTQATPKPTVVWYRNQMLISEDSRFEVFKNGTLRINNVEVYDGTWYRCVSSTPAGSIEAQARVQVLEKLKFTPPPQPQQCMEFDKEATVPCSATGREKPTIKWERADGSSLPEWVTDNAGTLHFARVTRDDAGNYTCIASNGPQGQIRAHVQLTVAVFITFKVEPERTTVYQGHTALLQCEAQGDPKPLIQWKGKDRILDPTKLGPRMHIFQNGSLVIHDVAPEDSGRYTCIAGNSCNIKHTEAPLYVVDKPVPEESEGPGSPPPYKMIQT
Method: (§1) Recombinant proteins consisting of the PTK7 extra-cellular domain (ECD) linked to His tag were purchased from ACRO biosystems. […] Binding assays using varying concentrations from 100 nM down to 1.56 nM of recombinant proteins (human, cynomolgus) in solution were performed using Octet RED (ForteBio). Association time was set at 180 seconds and dissociation time was set at 300 seconds. Binding affinity was calculated using ForteBio Data Acquisition 6.3 software (ForteBio). Affinity was derived by fitting the kinetic data to a 1:1 Langmuir binding model utilizing global fitting algorithms.

[2] = target: T2, human PTK7 extra-cellular domain (ECD) linked to His tag (human, UniProt Q13308 31-704); experiment: as above
T2 construct: extracellular domain; also called hPTK7-his; human PTK7-his protein; not shown: His tag
T2 sequence (looked up): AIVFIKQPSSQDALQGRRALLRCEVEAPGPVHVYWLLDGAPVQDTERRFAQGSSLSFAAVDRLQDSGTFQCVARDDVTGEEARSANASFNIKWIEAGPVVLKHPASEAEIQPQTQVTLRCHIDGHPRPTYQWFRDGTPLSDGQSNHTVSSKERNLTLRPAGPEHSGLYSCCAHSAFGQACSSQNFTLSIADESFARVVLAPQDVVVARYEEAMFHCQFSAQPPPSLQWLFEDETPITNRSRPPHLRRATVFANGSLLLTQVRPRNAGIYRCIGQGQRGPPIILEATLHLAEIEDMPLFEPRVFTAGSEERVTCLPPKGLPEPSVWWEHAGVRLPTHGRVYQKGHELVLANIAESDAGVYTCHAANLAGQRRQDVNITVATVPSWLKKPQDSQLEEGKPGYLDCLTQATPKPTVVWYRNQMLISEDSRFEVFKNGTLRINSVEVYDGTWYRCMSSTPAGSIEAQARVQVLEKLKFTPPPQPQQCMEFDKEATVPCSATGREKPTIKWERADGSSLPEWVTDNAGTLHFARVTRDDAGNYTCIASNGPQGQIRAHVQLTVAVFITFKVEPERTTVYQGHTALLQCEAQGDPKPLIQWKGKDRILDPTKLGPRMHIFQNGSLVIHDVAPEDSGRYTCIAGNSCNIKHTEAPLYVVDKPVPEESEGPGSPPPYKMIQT
Method: as §1

[3] = target: T3, mouse PTK-7 recombinant protein (mouse, UniProt Q8BKG3 23-696, limits assumed); experiment: ELISA, plate-coated mouse PTK7 recombinant protein
T3 construct: also called mouse PTK7 protein
T3 sequence (looked up): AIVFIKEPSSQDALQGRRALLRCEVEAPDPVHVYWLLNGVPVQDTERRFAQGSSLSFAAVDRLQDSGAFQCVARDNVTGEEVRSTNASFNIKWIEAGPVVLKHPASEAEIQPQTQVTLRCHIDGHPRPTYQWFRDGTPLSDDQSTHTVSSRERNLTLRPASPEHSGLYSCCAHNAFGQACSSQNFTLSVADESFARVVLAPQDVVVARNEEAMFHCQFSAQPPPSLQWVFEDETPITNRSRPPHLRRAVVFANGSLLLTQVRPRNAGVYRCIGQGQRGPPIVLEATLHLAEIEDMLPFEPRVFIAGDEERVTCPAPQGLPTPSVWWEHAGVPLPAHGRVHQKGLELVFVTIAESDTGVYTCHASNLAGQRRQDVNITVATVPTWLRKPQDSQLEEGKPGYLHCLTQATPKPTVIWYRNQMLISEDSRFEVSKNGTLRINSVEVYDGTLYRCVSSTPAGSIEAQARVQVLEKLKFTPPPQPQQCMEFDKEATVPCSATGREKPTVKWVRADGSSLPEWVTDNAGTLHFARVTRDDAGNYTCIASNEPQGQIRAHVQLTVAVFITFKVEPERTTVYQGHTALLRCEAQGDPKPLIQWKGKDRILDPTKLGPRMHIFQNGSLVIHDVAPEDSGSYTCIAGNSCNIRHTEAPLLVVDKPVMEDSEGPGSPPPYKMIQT
Method: Binding specificity property was tested by ELISA according to a standard protocol. Specifically, 96-well micro-plates were coated with 2 μg/mL human, cynomolgus, mouse, and rat PTK-7 recombinant protein in PBS 100 μL per well, incubated overnight at 4° C. Plates were washed twice by TBS+0.5% Tween20. 200 μL of blocking buffer (2% BSA in PBS) was added to each well and incubated at 37° C. for 2 hours. Plates were washed using the buffer mentioned above. Serially diluted antibodies were added to the ELISA plate with 100 μL per well and incubated for 1 hour at room temperature. Then plates were washed for 3 times. After washing, HRP conjugated anti-human Fc antibody solution (abcam, ab98624, diluted with blocking buffer) was added to the plate with 100 μl per well. The plates were incubated at room temperature for 1 hour and then washed for 3 times. Then TMB solution was added to plates with 100 μl per well, placed at room temperature for 5-15 mins, then the stop solution (2M H₂SO₄) was added with 50 μl per well. Finally, the result was measured by absorbance at A₄₅₀ and A₆₃₀.

Kd [1]: 0.0904 nM
koff [1]: 2.02e-05 s⁻¹
kon [1]: 224000 M⁻¹ s⁻¹
Kd [2]: ≤ 0.00139 nM
koff [2]: < 1e-07 s⁻¹
kon [2]: 34800 M⁻¹ s⁻¹
B1: humanized antibody 2C5 (antibody, V domains shown)
VH: QVQLVQSGAEVKKPGASVKVSCKASGYTFTDYYINWVRQAPGQGLEWMGDINPYSGGPVYNQKFMARVTMTVDKSINTAYMELSRLRSDDTAVYYCARGDYYGSNYNYWGQGTLVTVSS
VL: EIVLTQSPATLSVSPGERATLSCRASQNIGTSIHWYQQKPGQAPRLLIKFASESISGIPARFSGSGSGTEFTLTISSLQSEDIAVYYCQQSNNWPYTFGQGTKLEIK
notes: Only variable regions are tied to 2C5; It was detected with anti-human Fc, so it has a human Fc

binding result [3]: no binding
Kd [1]: < 0.001 nM
koff [1]: < 1e-07 s⁻¹
kon [1]: 54100 M⁻¹ s⁻¹
Kd [2]: 0.798 nM
koff [2]: 0.000132 s⁻¹
kon [2]: 166000 M⁻¹ s⁻¹
B2: humanized antibody 13C4 (antibody, V domains shown)
VH: QVQLVESGGGLVKPGGSLRLSCAASGFAFSTYDMFWIRQAPGKGLEWVSTISSGGGYTYYPGSVKGRFTISRDNAKNSLYLQMNSLRAEDTAVYYCVRPLLRDSYFYFDVWGQGTMVTVSS
VL: EIVMTQSPATLSVSPGERATLSCRASSSVSSSYLHWYQQKPGQAPRLLIFRTSNLASGIPARFSGSGSGTEYTLTISSLQSEDAAVYYCQQYSGYPLTFGQGTKLEIK
notes: Only variable regions are tied to 13C4; It was detected with anti-human Fc

binding result [3]: no binding
B3: humanized antibody 2C8 (antibody, V domains shown)
VH: QIQLVQSGAEVKKPGASVKVSCKASGYTFTTYGMSWVRQAPGQGLEWMGWINTHSGVPTYVDEFKGRVTMTLDTSTSTAYMELSSLRSEDTAVYYCARSPFDYGSRGAWFVYWGQGTTVTVSS
VL: DVVMTQSPDSLAVSLGERATINCRSSQSIVHNSGDTYLEWYQQKPGQPPKLLIYKVSNRFPGVPDRFSGSGSGTDFTLTISSLQAEDLAVYYCFQGSHVPWTFGGGTKVEIK
notes: Only variable regions are tied to 2C8 by name; It was detected with anti-human Fc

From US20250115680A1 (PROFOUNDBIO US, published 2025)
